Patent publication US20200317768A1 (published 2020)

What was measured:
Human latent myostatin [1] = molecular target: T1, Human latent myostatin (human, UniProt O14793 25-266; O14793 267-375); assay: SPR (BIACORE T200), 37 C, pH7.4, avidity condition (capture 185 RU), 1:1 fit; pH 7.4
T1 construct: Biotinylated in the ELISAs; also called human myostatin latent form
T1 sequence 1: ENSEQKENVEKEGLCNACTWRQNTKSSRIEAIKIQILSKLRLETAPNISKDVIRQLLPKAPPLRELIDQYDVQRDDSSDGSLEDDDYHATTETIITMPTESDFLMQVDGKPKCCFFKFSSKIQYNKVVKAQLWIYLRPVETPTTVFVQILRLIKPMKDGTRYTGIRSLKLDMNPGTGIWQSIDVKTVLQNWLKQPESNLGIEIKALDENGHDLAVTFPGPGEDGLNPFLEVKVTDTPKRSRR
T1 sequence 2: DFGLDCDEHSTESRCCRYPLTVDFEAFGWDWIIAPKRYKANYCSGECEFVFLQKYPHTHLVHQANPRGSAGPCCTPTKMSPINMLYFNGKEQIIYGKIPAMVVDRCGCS

[2] = molecular target: T2, Cynomolgus monkey latent myostatin (cynomolgus monkey, UniProt Q95J86 25-266; Q95J86 267-375); assay: as above
T2 construct: signal 1-24; also called Cyno latent myostatin
T2 sequence 1: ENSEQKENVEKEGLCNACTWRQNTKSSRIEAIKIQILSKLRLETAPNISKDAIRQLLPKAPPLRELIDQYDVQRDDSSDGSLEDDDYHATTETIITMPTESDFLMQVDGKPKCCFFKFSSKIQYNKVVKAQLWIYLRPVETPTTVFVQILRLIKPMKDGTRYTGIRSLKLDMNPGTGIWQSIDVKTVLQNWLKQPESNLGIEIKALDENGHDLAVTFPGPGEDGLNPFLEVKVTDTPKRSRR
T2 sequence 2: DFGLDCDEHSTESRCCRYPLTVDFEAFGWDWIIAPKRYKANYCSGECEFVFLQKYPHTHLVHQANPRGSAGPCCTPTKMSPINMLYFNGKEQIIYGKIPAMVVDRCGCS

Mouse latent myostatin [3] = molecular target: T3, Mouse latent myostatin (mouse, UniProt O08689 26-267; O08689 268-376); assay: as above
T3 construct: signal 1-24
T3 sequence 1: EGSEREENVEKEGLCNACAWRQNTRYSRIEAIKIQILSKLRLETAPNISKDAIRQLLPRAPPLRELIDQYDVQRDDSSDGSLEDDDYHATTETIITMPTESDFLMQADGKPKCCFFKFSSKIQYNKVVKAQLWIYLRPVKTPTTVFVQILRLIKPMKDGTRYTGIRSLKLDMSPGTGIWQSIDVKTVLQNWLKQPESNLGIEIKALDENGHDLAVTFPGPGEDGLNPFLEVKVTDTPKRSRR
T3 sequence 2: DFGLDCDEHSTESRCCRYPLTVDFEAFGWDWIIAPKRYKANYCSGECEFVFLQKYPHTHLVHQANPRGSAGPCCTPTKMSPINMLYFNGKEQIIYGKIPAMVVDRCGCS

Human latent myostatin [4] = molecular target: T1, Human latent myostatin; assay: SPR (BIACORE), additional dissociation phase at pH5.8 after dissociation at pH7.4, Scrubber 2.0 fit
Protocol: Each amino acid in the CDRs was individually mutated to histidine using In-Fusion HD Cloning Kit (Clontech Inc, or Takara Bio company) according to the manufacturer's instructions. […] All histidine-substituted variants were evaluated by a modified BIACORE® assay as compared to that described above. Briefly, an additional dissociation phase at pH5.8 was integrated into the BIACORE® assay immediately after the dissociation phase at pH7.4. This is to assess the pH-dependent dissociation between antibody (Ab) and antigen (Ag) from the complexes formed at pH7.4 as opposed to the corresponding dissociation at pH5.8. The dissociation rate at pH5.8 buffer was determined by processing and fitting data using the Scrubber 2.0 (BioLogic Software) curve fitting software.
Antibodies with a combination of these mutations in the CDRs were then generated.

Human latent myostatin [5] = molecular target: T1, Human latent myostatin; assay: SPR (BIACORE) as in Example 7; antigen not given, values equal those for human latent myostatin in Table 7
Protocol: (§1) The kinetic parameters of anti-latent myostatin antibodies against human, cynomolgus monkey (cyno), and mouse latent myostatin were assessed at 37° C. at pH7.4 using a BIACORE® T200 instrument (GE Healthcare). ProA/G (Pierce) was immobilized onto all flow cells of a CM4 chip using amine coupling kit (GE Healthcare). Anti-latent myostatin antibody and analytes were prepared in ACES pH7.4 (20 mM ACES, 150 mM NaCl, 1.2 mM CaCl₂), 0.05% TWEEN® 20, 0.005% NaN₃). […] Then human, cyno, or mouse latent myostatin was injected at 3.125 to 50 nM prepared by two-fold serial dilution, followed by dissociation. The sensor surface was regenerated with 25 mM NaOH. Kinetic parameters were determined by processing and fitting the data to a 1:1 binding model using BIACORE® T200 Evaluation software, version 2.0 (GE Healthcare).
Humanized antibodies were transiently expressed in FS293-F cells, and HEK Blue Assay and BIACORE® analysis were carried out as described above.

Human latent myostatin [6] = molecular target: T1, Human latent myostatin; assay: SPR (BIACORE T200), 37 C, pH7.4, 1:1 fit; title prints avidity, by the text the affinity condition (capture 18.5 RU); pH 7.4
Protocol: as §1
(§2) All experimental settings were the same as in Example 7, except that measurements were also performed in ACES pH5.8 buffer in addition to ACES pH7.4 condition. Some antibodies were only measured against human latent myostatin. Antibody capture level was aimed at 185 RU and 18.5 RU, for avidity and affinity assay, respectively. Kinetic parameters were determined using 1:1 Binding fitting using BIACORE® T200 Evaluation software, version 2.0 (GE Healthcare).

[7] = molecular target: T2, Cynomolgus monkey latent myostatin; assay: as above
Protocol: as §1, §2

Mouse latent myostatin [8] = molecular target: T3, Mouse latent myostatin; assay: as above
Protocol: as §1, §2

Kd (Human latent myostatin [1]): 0.075 nM
koff (Human latent myostatin [1]): 9.52e-05 s⁻¹
kon (Human latent myostatin [1]): 1.27e+06 M⁻¹ s⁻¹
Kd [2]: 0.066 nM
koff [2]: 8.08e-05 s⁻¹
kon [2]: 1.21e+06 M⁻¹ s⁻¹
Kd (Mouse latent myostatin [3]): 0.0471 nM
koff (Mouse latent myostatin [3]): 7.18e-05 s⁻¹
kon (Mouse latent myostatin [3]): 1.52e+06 M⁻¹ s⁻¹
koff (Human latent myostatin [4]): 2.92e-05 s⁻¹
Kd (Human latent myostatin [5]): 0.075 nM
koff (Human latent myostatin [5]): 9.52e-05 s⁻¹
kon (Human latent myostatin [5]): 1.27e+06 M⁻¹ s⁻¹
Kd (Human latent myostatin [6]): 0.23 nM
koff (Human latent myostatin [6]): 0.000245 s⁻¹
kon (Human latent myostatin [6]): 1.07e+06 M⁻¹ s⁻¹
Kd [7]: 0.209 nM
koff [7]: 0.000213 s⁻¹
kon [7]: 1.02e+06 M⁻¹ s⁻¹
Kd (Mouse latent myostatin [8]): 0.122 nM
koff (Mouse latent myostatin [8]): 0.00016 s⁻¹
kon (Mouse latent myostatin [8]): 1.31e+06 M⁻¹ s⁻¹
B1: MS_M103205H000-SG1/M103202LO00-SK1 (antibody, human IgG1, kappa, V domains shown)
VH: QVTLKESGPVLVKPTETLTLTCTVSGIDLSSYDISWVRQAPGKGLEWVGIISYAGSTYYASWAKGRLTISKDTSKNQVVLTMTNMDPVDTATYYCARGVPAYSTGGDLWGQGTLVTVSS
VL: DIVMTQSPATLSLSPGERATLSCQSSQSVYDNNWLSWFQQKPGQPPKLLIYWASTLASGVPSRFSGSGSGTDFTLTISSLQPEDAATYYCAGGYGGGLYAFGQGTKVEIKR
notes: Humanized MST1032, not pH-dependent; also called MS1032LO00-SG1; Ab001
